This is an account of results in PMC8269367.

Broadly, the Kd is the free concentration of one partner at which half of the binding sites on the other are occupied at equilibrium, for simple one-to-one binding. Read a high Kd as weaker binding.

Sequence of HMGN3 (Homo sapiens) (Q15651 whole entry): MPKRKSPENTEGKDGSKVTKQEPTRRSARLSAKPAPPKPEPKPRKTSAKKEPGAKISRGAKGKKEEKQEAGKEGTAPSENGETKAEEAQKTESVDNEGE

The first data set concerns the target HMGN3 (Homo sapiens) (UniProt Q15651). Kind of data set: MST. Conditions: 50 nM labelled protein, 0.61 nM-20 uM oligo, 140 mM potassium phosphate pH 7.2 (6.7 for i-motif N1-3; CTCF oligo CD at pH 6.7), 10 mM NaCl in oligo ….
For the substance AAAAAAAAAAAAAAAAAAAA [A20], the Kd was > 20 µM.
As to “AAGGAAAAGAAAAAA (double strand) [N3-2/N3C-2]”, the Kd is > 20 µM.
As to “CAATCGGATCGAATTCGATCCGATTG [hair (ds26)]”, the Kd is > 20 µM.
Turning to GGAGCAGGTGGGGAGCAGGCCGGAAGAGG [N3-M5], the Kd was > 20 µM.
On to GGGGACGAAGGGGGCGCGGTGCCTCCTGG [N3-M7], for which the Kd worked out at 0.15 µM.
With GGGGCCAGTGGACGCGGGGAGCCTGCGGG [N3-M6], the Kd was > 10 µM.
For the substance “TTTTCTTCTTCTTTT (double strand) [N3-1/N3C-1]”, the Kd is > 20 µM.
As for TTTTTTTTTTTTTTTTTTTT [T20], the Kd was > 20 µM.

For another data set, the target named is T1, CTCF (Mus musculus) (UniProt Q61164).
T1 sequence: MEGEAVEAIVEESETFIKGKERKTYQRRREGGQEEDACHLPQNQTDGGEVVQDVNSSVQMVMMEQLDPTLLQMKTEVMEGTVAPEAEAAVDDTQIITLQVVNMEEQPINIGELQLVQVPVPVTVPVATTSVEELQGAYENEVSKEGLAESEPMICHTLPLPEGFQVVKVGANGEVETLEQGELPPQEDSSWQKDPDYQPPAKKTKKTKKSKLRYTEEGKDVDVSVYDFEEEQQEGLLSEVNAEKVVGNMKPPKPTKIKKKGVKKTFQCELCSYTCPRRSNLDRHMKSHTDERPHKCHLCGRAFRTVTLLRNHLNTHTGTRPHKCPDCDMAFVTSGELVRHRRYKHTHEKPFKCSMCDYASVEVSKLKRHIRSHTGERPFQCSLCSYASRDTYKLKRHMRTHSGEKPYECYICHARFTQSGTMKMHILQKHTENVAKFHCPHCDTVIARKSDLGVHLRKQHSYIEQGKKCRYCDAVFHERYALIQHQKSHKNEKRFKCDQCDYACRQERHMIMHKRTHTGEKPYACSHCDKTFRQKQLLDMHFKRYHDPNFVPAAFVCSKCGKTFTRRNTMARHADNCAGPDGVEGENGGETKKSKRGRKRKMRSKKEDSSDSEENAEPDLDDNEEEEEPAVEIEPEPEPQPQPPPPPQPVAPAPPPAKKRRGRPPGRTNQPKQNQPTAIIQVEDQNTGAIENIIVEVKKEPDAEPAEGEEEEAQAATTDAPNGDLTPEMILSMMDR
Kind of data set: MST. To be noted: 50 nM labelled protein, 0.61 nM-20 uM oligo, 140 mM potassium phosphate pH 7.2 (6.7 for i-motif N1-3; CTCF oligo CD at pH 6.7), 10 mM NaCl in oligo ….
With GGGGGGCGGGGGGCGGGGGGGGGGG [BDN-G4], the Kd was determined as 0.12 µM.
In turn, GGGGGTGGGGGGTGGGGGGAGGGGGG [SHA-G4] yielded a Kd of 0.07 µM. This Kd lies about 1.7-fold lower than the previous one.
For the substance control CTCF duplex, the Kd stood at 0.08 µM.
